In US20130289246A1 (VANDERBILT UNIVERSITY, published 2013):

Tests used:
[1] = biological target: T1, recombinant soluble 1968 H3 HA (A/Aichi/2/1968) (Influenza A virus A/Aichi/2/1968 (H3N2), UniProt P03437 17-530); experiment: ELISA, supernate
[2] = biological target: recombinant soluble trimeric 1918 H1 HA (A/South Carolina/1/1918, wild type) (Influenza A virus A/South …, UniProt Q9WFX3 18-529); experiment: ELISA, supernate
[3] = biological target: T1, recombinant soluble 1968 H3 HA …; experiment: ELISA, supernate; remark: listed apart in the source
[4] = biological target: T1, recombinant soluble 1968 H3 HA …; experiment: ELISA, recombinant mAb

recombinant soluble trimeric 1918 H1 HA (A/South Carolina/1/1918, wild type), sequence (Q9WFX3 18-529): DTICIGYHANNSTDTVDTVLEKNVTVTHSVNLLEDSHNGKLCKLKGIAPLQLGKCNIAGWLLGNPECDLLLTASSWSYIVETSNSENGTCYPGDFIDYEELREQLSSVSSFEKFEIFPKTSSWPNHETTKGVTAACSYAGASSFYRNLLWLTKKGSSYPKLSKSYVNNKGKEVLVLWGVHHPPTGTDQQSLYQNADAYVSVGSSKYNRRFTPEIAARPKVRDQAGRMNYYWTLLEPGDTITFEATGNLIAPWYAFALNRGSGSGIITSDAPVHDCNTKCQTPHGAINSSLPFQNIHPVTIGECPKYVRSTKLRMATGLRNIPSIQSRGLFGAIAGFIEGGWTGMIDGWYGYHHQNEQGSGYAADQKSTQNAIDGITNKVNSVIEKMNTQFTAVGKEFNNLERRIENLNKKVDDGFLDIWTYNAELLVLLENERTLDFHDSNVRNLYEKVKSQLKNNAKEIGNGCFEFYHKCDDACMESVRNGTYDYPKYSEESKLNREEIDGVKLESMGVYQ

B1: mAb 10E15 (antibody, V domains shown)
VH: EVQLLESGGGVVQPGRSLRLSCAASGFTFRTYGMHWVRQAPGKGLEWVAVISHDGNLKYYGGSVKGRFTISRDNSKNALYLQMNSLRVDDTALYYCARGIGITDAFDIRGQGTMVVVS
VL: QSVLTQPPSVSAAPGQKVTISCSGSSSNIGKNYVSWYQQLPGTAPKLLIYDNDKRPSGIPDRFSGSKSGTSATLGITGLQTGDEADYHCGAWDSSLNGGVFGGGTKVTVLG
B1 gave an OD [1] of 0.074 OD.

B2: mAb 3E22 (antibody, V domains shown)
VH: EVQLVESGAEVKKPGASVKVSCKASGYTFSRYYIHWVRQAPGQELEWMGWINPDSGDTNYAQKFRGRVTMARDTSISTVYMELNSLRYDDTAVYFCARIIWSSSGMDVWGQGTTVTVS
VL: QSALTQPASVSGSPGQSITISCTGTSSDVGSYNLVSWYQQHPGKAPKLMIYEVSKRPSGVSNRFSGSKSGNTASLTISGLQAEDEADYYCHLYVGSSNWVFGGGTKLAVLG
With B2 the OD [2] was 0.741 OD and the OD [3] was 0.379 OD.

B3: mAb 3N6 (recombinant) (antibody, V domains shown)
VH: QVQLQESGPGLVKPSETLSLTCSVSGGSINYYYWSWIRQPPGKGLECIGYISDTGRTYYNPSLRSRVTISVDTSKNQFSLNLTSMTAADTAVYYCARDPTGSRQKNAFDMWGQGTMVTVS
VL: AIQMTQSPSSLSASVGDRVTITCRASQNIRSYLNWYQQKPGKAPNLLIYGTTSLESGVPSRFSGSGSGTDFTLTISSLQPEDFATYYCQQSYHTPQTFGQGTKVEIKR
In the case of B3, the OD [4] is reported as 0.069 OD.
